# Source: patent US20250228951A1, “NOVEL-PEPTIDE-BASED ANTICANCER IMMUNOTHERAPEUTIC AGENT” (TWINPIG BIOLAB INC., priority 2022, published 2025)
# What was measured:
# M2 macrophages [1] = experiment: Flow cytometry of FITC-conjugated melittin on THP-1-derived M0, M1 and M2 macrophages; assay type: cell-based, human; conditions: 50 nM FITC-conjugated melittin, 1 hour; M2 macrophages compared to the other macrophage types
# Protocol: To confirm whether the melittin fabricated in Example 1 specifically bound to M2 tumor-associated macrophages (M2 TAMs), a human monocyte cell line THP-1 was differentiated into M0, M1, and M2 macrophages, and treated with FITC-conjugated melittin, and then confirmed by flow cytometry. Specifically, THP-1 cells were treated with 100 nM phorbol 12-myristate 13-acetate (PMA) at 37° C. for 24 hours (M0 macrophages), and the differentiated M0 macrophages were incubated with 100 nM LPS and 20 ng/ml IFN-γ at 37° C. for 72 hours to be differentiated into M1 macrophages (M1), and incubated with 20 ng/ml IL-4 and IL-13 at 37° C. for 72 hours to be differentiated into M2 macrophages (M2). The differentiated cells were treated with 50 nM FITC-conjugated melittin for 1 hour, detected with BD FACS CantoII instruments (BD biosciences, San Jose, CA, USA), and analyzed with FlowJo software (BD biosciences).
# [2] = molecular target: ITGB2 protein immobilised on the SPR sensor chip (UniProt P05107)
# M2 macrophages [3] = experiment: CCK-8 cell viability in M2 macrophages; assay type: cell-based, human; conditions: Melittin-dKLA 1 μM, control M2 macrophages
# Protocol: (§1) To confirm whether Melittin-dKLA bound to ITGB2 to induce apoptosis in M2 macrophages, Melittin-dKLA (1 μM) was treated for 24 hours to M2 macrophages in which ITGB2 expression was suppressed by Crispr/cas9 fabricated in Example 7-1 above, and cell viability was analyzed using a CCK-8 assay. Specifically, Melittin-dKLA (1 μM) reacted with ITGB2 knockdown macrophages fabricated in Example 7-1 above for 1 hour. After the reaction, the medium was replaced and cultured at 37° C. for 24 hours. To determine cell viability, a CCK-8 reagent (Enzo Life Sciences) was added in 1/10 of the medium and reacted at 37° C. for 3 hours. Absorbance was measured at 450 nm using a microplate reader (Molecular Devices).
# To confirm whether TB511 (TAMpep826-dKLA) induced apoptosis through ITGB2 in M2 macrophages, TB511 reacted with M2 macrophages in which ITGB2 expression was suppressed by Crispr/cas9 fabricated in Example 7-1.
# [4] = tested on: M2 macrophages in which ITGB2 expression was suppressed by Crispr/cas9; experiment: CCK-8 cell viability in M2 macrophages with ITGB2 expression suppressed by Crispr/cas9; assay type: cell-based, human; conditions: Melittin-dKLA 1 μM, ITGB2 knocked down M2 macrophages
# Protocol: As a cell model used to confirm whether apoptosis was induced through ITGB2 in M2 macrophages, a cell model in which the expression of ITGB2 was suppressed in M2 macrophages was fabricated using Crispr/cas9. Specifically, cells differentiated into M2 macrophages were cultured in an Opti-MEM medium. The Crispr/cas9 was mixed with Cas9 protein V2 (Thermo Fisher scientific) and gRNA (Genscript; ITGB2; Table 7) of a CRISPRMAX™ Reagent kit (Thermo Fisher scientific) and a Cas9 Plus™ Reagent (Thermo Fisher scientific), and a CRISPRMAX™ Reagent was diluted in the Opti-MEM medium, mixed together, and reacted for 5 to 10 minutes, and then added to cells differentiated into M2 macrophages and cultured at 37° C. for 2 to 3 days. Thereafter, the mRNA expression level of ITGB2 was confirmed.
# as §1, with “To determine cell viability, a CCK-8 reagent (Enzo Life Sciences) was added in 1/10 of the medium and reacted at 37° C. for 3 hours.” left out, “Devices). […]” for “Devices).”
# ITGB2 protein immobilised on the SPR sensor chip, sequence (P05107 23-700 limits assumed): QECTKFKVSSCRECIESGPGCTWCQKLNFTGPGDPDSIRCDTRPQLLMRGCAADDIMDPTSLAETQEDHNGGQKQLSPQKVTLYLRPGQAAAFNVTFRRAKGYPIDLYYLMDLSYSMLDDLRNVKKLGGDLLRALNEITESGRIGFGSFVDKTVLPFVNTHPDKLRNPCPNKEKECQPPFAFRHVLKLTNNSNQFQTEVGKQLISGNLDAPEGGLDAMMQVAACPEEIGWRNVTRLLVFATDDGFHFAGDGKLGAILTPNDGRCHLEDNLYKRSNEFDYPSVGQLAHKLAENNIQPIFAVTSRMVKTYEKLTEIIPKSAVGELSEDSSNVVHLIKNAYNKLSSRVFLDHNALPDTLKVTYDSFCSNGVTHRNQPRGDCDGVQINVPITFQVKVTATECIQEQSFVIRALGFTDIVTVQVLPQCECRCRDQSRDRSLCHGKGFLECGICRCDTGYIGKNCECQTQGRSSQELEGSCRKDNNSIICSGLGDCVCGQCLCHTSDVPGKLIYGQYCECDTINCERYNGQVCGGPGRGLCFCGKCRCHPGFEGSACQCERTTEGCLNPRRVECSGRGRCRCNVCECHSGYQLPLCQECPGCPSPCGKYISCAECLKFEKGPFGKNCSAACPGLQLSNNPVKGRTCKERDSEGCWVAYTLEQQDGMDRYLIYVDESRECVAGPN
compound,measurement,setting,value
CC[C@H](C)[C@H](NC(=O)CN)C(=O)NCC(=O)N[C@@H](C)C(=O)N[C@H](C(=O)N[C@@H](CC(C)C)C(=O)N[C@@H](CCCCN)C(=O)N[C@H](C(=O)N[C@@H](CC(C)C)C(=O)N[C@H](C(=O)N[C@H](C(=O)NCC(=O)N[C@@H](CC(C)C)C(=O)N1CCC[C@H]1C(=O)N[C@@H](C)C(=O)N[C@@H](CC(C)C)C(=O)N[C@H](C(=O)N[C@@H](CO)C(=O)N[C@@H](Cc1c[nH]c2ccccc12)C(=O)N[C@H](C(=O)N[C@@H](CCCCN)C(=O)N[C@@H](CCCNC(=N)N)C(=O)N[C@@H](CCCCN)C(=O)N[C@@H](CCCNC(=N)N)C(=O)N[C@@H](CCC(N)=O)C(=O)N[C@@H](CCC(N)=O)C(N)=O)[C@@H](C)CC)[C@@H](C)CC)[C@@H](C)O)[C@@H](C)O)C(C)C)C(C)C [Melittin],FITC-positive cells,M2 macrophages [1],significantly increased
Melittin-dKLA (peptide),Ka,[2],1.27e+07 M⁻¹
same,Kd,[2],78.6 nM
same,koff,[2],0.00381 s⁻¹
same,kon,[2],48500 M⁻¹ s⁻¹
"GIGAVLKVLTTGLPALISWIKRKRQQ-GGGGS-d[KLAKLAKKLAKLAK] (SEQ ID NO: 5), peptide with linker and drug dKLA attached to melittin [Melittin-dKLA]",cell viability,M2 macrophages [3],significantly reduced
same,cell viability,[4],the decrease in cell viability by Melittin-dKLA was suppressed
